Tests used:
[1] = test system: 67PfluR64PP RNA polymerase

67PfluR64PP lysozyme
reduction of leaky msfGFP expression caused by the phi15 RNAP (P. putida, 4 mM Rha) (phi15 RNA polymerase): The 67PfluR64PP lysozyme reduced the leaky expression by 58%
reduction of msfGFP output upon lysozyme induction (P. putida, 4 mM Rha) [1]: 67PfluR64PP (-51%)

PPPL-1 lysozyme
reduction of msfGFP output upon lysozyme induction (P. putida, 4 mM Rha) (PPPL-1 RNA polymerase): PPPL-1 (-39%)

Pf-10 lysozyme
reduction of msfGFP output upon lysozyme induction (P. putida, 4 mM Rha) (Pf-10 RNA polymerase): Pf-10 (-80%)

phi15 lysozyme (G3RQ)
dynamic range of the system (fold induction), lysozyme integrated in PP4305, P. putida SEM11 (phi15 RNA polymerase): the dynamic range of the system increased from 33 to 107- and 70-fold, respectively
dynamic range of the system (fold induction), lysozyme integrated in PP5388, P. putida SEM11 (phi15 RNA polymerase): the dynamic range of the system increased from 33 to 107- and 70-fold, respectively

phi15 lysozyme (wild-type)
reduction of msfGFP output upon lysozyme induction (P. putida, 4 mM Rha) (phi15 RNA polymerase): The phi15 lysozyme caused only a -30% reduction of the msfGFP output

Source: patent US20260085338
